Experimental data: the supplement of paper PMC10065799, “High-throughput profiling of sequence recognition by tyrosine kinases and SH2 domains using bacterial peptide display” (eLife, 2023)

What was measured:
[1] = tested on: AncSZ; assay: phosphorylation enrichment, bacterial display (enrichment ratio); higher = better substrate or ligand; peptides without Tyr show the background
[2] = biological target: EPHB1 (UniProt P54762); assay: as above
[3] = biological target: EPHB2 (UniProt P29323); assay: as above
[4] = biological target: FGFR1 (UniProt P11362); assay: as above
[5] = biological target: FGFR3 (UniProt P22607); assay: as above
[6] = tested on: Fer (mouse); assay: as above
[7] = biological target: Fes (UniProt P07332); assay: as above
[8] = biological target: Fyn (UniProt P06241); assay: as above
[9] = biological target: Hck (UniProt P08631); assay: as above
[10] = biological target: Jak2 (UniProt O60674); assay: as above
[11] = biological target: MERTK (UniProt Q12866); assay: as above
[12] = tested on: c-Abl (mouse); assay: as above
[13] = tested on: c-Src; assay: as above
[14] = biological target: Grb2 SH2 (UniProt P62993); assay: SH2 binding enrichment of the phosphorylated peptide, bacterial display (enrichment ratio); higher = better substrate or ligand; peptides without Tyr show the background
[15] = biological target: SHP2-C SH2; assay: as above
[16] = biological target: c-Src SH2; assay: as above
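For SH2 binding enrichment of the phosphorylated peptide, bacterial display in this document: peptide library displayed on the E. coli surface as eCPX fusions, selected cells deep-sequenced, score is each peptide's frequency after selection divided by its frequency in the input.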
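For phosphorylation enrichment, bacterial display in this document: 11-residue human phosphosite peptides and single-mutation variants displayed on the E. coli surface, counted by deep sequencing, each peptide's frequency after selection divided by its frequency in the unselected input library; frequency after pTyr selection over input frequency; kinase dosed for 20-30% of maximal phosphorylation in three min.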

Fes, sequence (P07332 whole entry, looked up): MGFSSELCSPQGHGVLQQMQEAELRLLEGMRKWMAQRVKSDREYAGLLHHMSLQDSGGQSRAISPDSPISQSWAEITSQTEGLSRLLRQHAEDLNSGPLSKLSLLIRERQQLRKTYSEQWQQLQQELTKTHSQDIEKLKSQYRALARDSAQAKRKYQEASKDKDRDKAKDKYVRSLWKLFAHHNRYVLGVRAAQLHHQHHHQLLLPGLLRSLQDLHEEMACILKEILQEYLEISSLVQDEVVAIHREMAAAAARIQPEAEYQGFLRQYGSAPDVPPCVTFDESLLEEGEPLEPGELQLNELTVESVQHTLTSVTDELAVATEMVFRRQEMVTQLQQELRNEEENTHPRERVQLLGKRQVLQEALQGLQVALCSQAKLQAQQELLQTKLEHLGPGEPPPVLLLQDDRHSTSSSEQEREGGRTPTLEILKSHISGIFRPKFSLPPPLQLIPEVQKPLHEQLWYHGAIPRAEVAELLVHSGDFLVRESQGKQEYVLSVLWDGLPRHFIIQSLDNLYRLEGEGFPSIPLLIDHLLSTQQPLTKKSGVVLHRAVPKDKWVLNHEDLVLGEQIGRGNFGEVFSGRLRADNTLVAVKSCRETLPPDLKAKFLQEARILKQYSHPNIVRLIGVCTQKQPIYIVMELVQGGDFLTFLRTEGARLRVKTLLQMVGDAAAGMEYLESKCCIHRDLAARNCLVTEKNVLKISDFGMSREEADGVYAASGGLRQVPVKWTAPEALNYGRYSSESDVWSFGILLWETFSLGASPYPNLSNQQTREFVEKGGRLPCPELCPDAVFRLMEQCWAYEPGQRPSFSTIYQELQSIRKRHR
FGFR3, sequence (P22607 whole entry, looked up): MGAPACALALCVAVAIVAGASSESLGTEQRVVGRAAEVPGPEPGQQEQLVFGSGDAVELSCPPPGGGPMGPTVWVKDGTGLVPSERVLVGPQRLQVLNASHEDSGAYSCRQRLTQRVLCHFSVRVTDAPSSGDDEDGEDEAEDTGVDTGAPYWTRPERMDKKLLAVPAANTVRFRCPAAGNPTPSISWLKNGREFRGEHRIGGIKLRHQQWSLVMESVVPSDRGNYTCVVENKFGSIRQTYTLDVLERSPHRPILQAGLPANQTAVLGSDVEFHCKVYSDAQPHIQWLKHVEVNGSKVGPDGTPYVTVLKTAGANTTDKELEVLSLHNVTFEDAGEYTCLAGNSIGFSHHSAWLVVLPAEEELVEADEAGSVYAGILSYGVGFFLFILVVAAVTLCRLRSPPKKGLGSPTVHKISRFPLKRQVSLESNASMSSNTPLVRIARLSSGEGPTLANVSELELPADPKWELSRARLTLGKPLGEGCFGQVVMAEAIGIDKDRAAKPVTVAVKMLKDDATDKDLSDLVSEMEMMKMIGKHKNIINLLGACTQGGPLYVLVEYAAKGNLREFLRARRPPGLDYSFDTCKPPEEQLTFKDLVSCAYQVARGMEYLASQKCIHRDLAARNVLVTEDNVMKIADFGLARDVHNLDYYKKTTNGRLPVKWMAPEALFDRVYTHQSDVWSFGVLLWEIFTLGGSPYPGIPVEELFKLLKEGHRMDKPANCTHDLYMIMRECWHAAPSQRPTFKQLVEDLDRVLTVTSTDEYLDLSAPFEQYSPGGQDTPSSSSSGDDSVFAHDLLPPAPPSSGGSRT
FGFR1, sequence (P11362 whole entry, looked up): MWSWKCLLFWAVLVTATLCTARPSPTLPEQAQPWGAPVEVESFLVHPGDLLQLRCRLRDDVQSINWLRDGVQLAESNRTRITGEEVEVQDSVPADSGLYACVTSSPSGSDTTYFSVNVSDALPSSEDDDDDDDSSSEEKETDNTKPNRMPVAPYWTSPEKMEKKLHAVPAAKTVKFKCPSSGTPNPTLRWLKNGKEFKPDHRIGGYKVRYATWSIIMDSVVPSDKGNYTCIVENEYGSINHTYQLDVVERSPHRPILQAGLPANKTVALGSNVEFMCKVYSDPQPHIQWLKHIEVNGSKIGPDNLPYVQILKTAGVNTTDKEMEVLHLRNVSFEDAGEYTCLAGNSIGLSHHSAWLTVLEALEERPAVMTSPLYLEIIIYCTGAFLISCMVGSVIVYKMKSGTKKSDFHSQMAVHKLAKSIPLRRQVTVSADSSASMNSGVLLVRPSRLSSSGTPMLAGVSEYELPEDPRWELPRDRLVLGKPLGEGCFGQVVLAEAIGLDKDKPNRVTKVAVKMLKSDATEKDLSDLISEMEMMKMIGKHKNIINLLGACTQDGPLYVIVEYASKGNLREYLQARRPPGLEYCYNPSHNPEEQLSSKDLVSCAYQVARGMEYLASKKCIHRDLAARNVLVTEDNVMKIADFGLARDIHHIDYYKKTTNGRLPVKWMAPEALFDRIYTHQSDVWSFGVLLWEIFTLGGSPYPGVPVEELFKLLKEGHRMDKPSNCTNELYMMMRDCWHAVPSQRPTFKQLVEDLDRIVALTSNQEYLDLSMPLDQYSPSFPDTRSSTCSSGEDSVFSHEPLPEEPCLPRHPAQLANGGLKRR
Grb2 SH2, sequence (P62993 whole entry, looked up): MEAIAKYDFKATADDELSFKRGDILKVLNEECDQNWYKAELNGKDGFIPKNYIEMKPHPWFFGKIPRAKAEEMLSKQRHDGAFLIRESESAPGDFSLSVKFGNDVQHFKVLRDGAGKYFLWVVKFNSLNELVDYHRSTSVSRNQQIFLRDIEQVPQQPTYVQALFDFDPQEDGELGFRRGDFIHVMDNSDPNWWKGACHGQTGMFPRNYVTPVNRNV
Jak2, sequence (O60674 whole entry, looked up): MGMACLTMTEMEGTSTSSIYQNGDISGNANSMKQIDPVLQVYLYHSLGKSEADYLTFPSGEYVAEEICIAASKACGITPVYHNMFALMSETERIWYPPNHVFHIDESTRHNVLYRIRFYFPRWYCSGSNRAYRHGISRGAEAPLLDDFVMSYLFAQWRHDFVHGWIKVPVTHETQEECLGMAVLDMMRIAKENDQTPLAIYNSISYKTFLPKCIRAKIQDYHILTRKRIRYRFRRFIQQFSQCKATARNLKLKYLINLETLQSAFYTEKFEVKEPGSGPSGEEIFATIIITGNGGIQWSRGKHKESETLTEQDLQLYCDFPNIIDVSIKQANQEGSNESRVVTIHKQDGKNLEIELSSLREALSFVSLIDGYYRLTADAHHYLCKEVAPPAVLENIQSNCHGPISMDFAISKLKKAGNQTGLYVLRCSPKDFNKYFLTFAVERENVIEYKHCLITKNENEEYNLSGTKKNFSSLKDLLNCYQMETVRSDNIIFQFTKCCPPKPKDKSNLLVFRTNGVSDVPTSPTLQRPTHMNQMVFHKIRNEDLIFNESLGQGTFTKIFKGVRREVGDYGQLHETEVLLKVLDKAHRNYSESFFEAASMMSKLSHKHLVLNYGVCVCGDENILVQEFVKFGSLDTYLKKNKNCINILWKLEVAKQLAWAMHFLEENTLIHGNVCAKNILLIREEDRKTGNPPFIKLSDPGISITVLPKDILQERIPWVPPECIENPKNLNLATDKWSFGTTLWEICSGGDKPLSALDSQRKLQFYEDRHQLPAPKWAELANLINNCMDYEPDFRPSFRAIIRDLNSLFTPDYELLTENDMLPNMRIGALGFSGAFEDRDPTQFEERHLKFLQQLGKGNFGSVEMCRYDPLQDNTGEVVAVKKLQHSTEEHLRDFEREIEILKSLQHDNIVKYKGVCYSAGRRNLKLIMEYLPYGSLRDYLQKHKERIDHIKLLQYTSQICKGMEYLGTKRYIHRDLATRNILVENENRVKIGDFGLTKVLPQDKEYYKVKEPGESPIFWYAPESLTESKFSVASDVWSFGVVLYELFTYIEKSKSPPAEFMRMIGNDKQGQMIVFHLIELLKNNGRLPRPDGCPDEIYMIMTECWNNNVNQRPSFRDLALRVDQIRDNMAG
MERTK, sequence (Q12866 whole entry, looked up): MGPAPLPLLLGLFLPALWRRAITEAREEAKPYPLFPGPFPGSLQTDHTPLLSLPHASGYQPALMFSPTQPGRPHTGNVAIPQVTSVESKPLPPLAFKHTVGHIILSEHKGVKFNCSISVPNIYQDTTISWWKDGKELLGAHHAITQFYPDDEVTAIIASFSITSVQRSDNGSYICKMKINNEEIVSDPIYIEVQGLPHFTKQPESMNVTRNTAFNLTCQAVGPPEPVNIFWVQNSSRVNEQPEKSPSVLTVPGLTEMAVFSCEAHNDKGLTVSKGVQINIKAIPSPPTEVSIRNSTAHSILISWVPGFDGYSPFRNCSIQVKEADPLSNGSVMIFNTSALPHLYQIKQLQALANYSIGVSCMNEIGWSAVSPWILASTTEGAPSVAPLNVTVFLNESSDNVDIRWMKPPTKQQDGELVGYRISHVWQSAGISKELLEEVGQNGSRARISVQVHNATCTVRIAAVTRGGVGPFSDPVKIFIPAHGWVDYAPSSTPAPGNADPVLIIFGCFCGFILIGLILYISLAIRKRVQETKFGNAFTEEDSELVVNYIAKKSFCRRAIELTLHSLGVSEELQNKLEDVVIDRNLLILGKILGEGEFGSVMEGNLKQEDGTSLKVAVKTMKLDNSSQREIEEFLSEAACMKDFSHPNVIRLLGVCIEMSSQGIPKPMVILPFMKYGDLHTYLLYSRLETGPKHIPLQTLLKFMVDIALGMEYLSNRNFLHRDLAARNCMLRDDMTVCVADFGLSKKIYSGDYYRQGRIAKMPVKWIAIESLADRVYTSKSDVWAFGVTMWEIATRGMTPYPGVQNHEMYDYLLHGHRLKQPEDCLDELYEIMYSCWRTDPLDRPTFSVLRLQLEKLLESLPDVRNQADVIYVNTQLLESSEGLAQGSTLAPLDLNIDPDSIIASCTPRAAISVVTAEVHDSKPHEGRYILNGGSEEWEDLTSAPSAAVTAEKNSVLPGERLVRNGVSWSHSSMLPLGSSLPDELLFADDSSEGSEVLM

Sequence	phosphorylation enrichment [1]	phosphorylation enrichment [2]	phosphorylation enrichment [3]	phosphorylation enrichment [4]	phosphorylation enrichment [5]	phosphorylation enrichment [6]	phosphorylation enrichment [7]	phosphorylation enrichment [8]	phosphorylation enrichment [9]	phosphorylation enrichment [10]	phosphorylation enrichment [11]	phosphorylation enrichment [12]	phosphorylation enrichment [13]	SH2 binding enrichment [14]	SH2 binding enrichment [15]	SH2 binding enrichment [16]
LYEDCYLLGTS [ASS1_Y87_R86C]	2.29	7.04	3.42	1.26	1.28	13.4	2.12	4.12	1.9	1.78	3.13	1.08	4.68	0.933	0.314	0.962
MANYMYKAGPS [MAML2_Y515]	0.636	1.32	0.963	0.465	0.496	0.358	0.616	0.508	0.51	0.497	0.584	1.04	0.556	0.887	0.787	0.485
MARDISRASFF [ALK_Y1278_Y1278S_YF]	0.626	0.463	0.467	0.41	0.473	0.392	0.682	0.443	0.384	0.53	0.432	0.545	0.396	1.06	0.716	0.454
MASTSYDFCRV [BST2_Y6_YF]	0.944	0.576	0.613	0.572	0.829	2.25	0.919	0.486	0.473	0.796	0.709	0.622	0.525	0.99	0.727	1.66
MAYDRYAAICS [OR8H2_Y123_H120Y]	0.94	0.699	0.828	0.526	0.687	0.597	1.35	0.526	0.76	1.04	0.835	0.839	0.661	0.852	0.956	2.79
MCITRYERESQ [PRNP_Y218_Q217R]	1.03	0.429	0.528	0.433	0.541	0.488	0.813	0.404	0.469	0.769	0.457	0.466	0.404	1.07	0.784	0.705
MDNQEYKDAFT [BRDT_Y331_K336T_YF]	1.14	0.56	0.913	0.539	0.802	0.539	1.3	0.486	0.488	1.15	0.402	0.737	0.458	0.685	0.69	0.617
MEIHAYHKLLE [LMNA_Y376_R377H]	0.974	0.475	0.588	0.474	0.746	0.422	1.25	0.445	0.552	1.03	0.403	0.691	0.441	0.743	0.762	8.92
MFFSTYDRDND [FGB_Y408]	0.849	0.541	0.578	0.673	0.601	0.501	1.05	0.426	0.511	1.03	0.408	0.84	0.589	0.845	1.03	0.778
MFRVQYNSSVD [LRFN1_Y458_Q455R_YF]	0.769	0.49	0.477	0.439	0.597	0.415	0.931	0.424	0.406	0.908	0.349	0.552	0.386	0.89	0.868	0.572
MGCVNYGAYIN [GLB1_Y485_R482C]	1.32	0.793	0.83	0.469	0.851	0.571	1.37	0.578	0.572	1.56	0.483	1.39	1.08	1.44	0.606	0.569
MGSYNYLGFAW [SPTLC2_Y178_R183W]	1.11	3.69	1.88	2.96	2.24	0.617	0.937	0.708	1.4	3.68	3.65	0.737	1.04	0.682	0.845	0.477
MHYSNYVSKGS [PDGFRA_Y849_D846Y]	0.617	0.412	0.472	0.421	0.397	0.458	0.533	0.424	0.478	0.467	0.526	0.432	0.495	1.34	0.78	0.799
MIRSAYALGGL [CPS1_Y590]	0.54	0.358	0.435	0.392	0.473	0.32	0.534	0.41	0.386	0.597	0.449	0.417	0.384	0.715	0.689	0.46
MKSIKYMDKEI [CCDC60_Y41]	0.578	0.399	0.392	0.452	0.389	0.514	0.569	0.375	0.402	0.603	0.44	0.457	0.447	0.797	0.525	0.405
MLEAPYVDRNS [F10_Y384_V382A]	0.747	0.452	0.451	0.455	0.557	0.391	0.954	0.465	0.497	0.739	0.343	0.689	0.435	0.827	0.743	0.439
